According to patent US20040067513A1:

Target: OB-RL(wt)
Experiment: cell-based or functional assay

Leptin (ligand) was tested, and the Reporter Activity (GT1-7 cells, leptin +; 3041 without leptin) was 27000, the Reporter Activity (cells co-transfected with 84569 cDNA, leptin +; 4146 without leptin) was 7600 and the Reporter Activity (cells co-transfected with control vector, leptin +; 4316.5 without leptin) was 25000.
